The results in this text go back to patent US20180127513A1 (Bristol-Myers Squibb, published 2018).

Assay [1] has as its target T1, human CD73 on cells (human, UniProt P21589 27-549).
T1 sequence: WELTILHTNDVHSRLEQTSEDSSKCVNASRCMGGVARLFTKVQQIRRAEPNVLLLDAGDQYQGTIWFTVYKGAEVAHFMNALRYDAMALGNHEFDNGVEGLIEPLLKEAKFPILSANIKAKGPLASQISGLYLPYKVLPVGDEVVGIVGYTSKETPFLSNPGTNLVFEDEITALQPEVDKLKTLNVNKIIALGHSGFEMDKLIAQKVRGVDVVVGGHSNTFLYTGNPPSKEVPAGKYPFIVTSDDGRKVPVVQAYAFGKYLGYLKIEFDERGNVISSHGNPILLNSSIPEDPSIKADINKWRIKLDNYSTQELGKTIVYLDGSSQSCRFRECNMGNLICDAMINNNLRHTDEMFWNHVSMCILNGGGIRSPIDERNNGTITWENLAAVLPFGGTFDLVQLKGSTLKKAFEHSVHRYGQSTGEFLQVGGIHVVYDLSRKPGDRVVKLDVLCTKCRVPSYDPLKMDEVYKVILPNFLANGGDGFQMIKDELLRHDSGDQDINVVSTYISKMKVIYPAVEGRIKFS
The assay is described as follows: cell-based or functional assay.

In assay [2] the target is T1, human CD73 on cells. Description: cell-based or functional assay. The source holds these as a separate data set.
The target of assay [3] is T2, N-hCD73-his (human, UniProt P21589 26-336).
T2 construct: also called hCD73(26-336)His; CD73(26-336)His; not shown: His tag
T2 sequence: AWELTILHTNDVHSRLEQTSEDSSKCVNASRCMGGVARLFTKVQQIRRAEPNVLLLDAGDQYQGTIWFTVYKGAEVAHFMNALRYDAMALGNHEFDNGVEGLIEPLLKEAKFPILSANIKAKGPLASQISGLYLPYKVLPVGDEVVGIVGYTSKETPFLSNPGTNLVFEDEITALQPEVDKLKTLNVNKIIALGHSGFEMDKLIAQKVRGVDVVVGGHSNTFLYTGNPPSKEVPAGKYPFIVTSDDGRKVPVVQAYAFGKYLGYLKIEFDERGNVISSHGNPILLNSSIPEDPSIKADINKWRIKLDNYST
The assay is described as follows: SPR. The source says:
One experimental format tested the binding of the N-terminal domain of hCD73 (consisting of residues 26-336 of human CD73; termed N-hCD73) to antibodies that were captured on immobilized protein A surfaces. For these experiments, protein A (Pierce) was immobilized to a density of 3000-4000 RU on flow cells 1-4 of a CM5 sensor chip (GE Healthcare) using standard ethyl(dimethylaminopropyl) carbodiimide (EDC)/N-hydroxysuccinimide (NHS) chemistry, with ethanolamine blocking, in a running buffer of 0.01 M HEPES pH 7.4, 0.15 M NaCl, 3 mM EDTA, 0.005% v/v tween 20. […] The running buffer for the kinetic experiments was 10 mM sodium phosphate, 130 mM sodium chloride, 0.05% tween 20, pH 7.1. The surfaces were regenerated after each cycle using two 30 s pulses of 10 mM glycine pH 1.5 at a flow rate of 30 μl/min. Sensogram data was double-referenced and then fitted to a 1:1 Langmuir model using Biacore T100 evaluation software v2.0.4, to determine the association rate constant (ka), the dissociation rate constant (kd), and the equilibrium dissociation constant (KD).
(In general: In SPR one partner is held on a chip, and binding of the other changes the refractive index at the surface.)

B1: 11F11 (antibody, human IgG2, kappa, V domains shown)
VH: QVQLVESGGGVVQPGRSLRLSCATSGFTFSNYGMHWVRQAPGKGLEWVAVILYDGSNKYYPDSVKGRFTISRDNSKNTLYLQMNSLRAEDTAVYYCARGGSSWYPDSFDIWGQGTMVTVSS
VL: DIQMTQSPSSLSASVGDRVTITCRASQGISSWLAWYQQKPEKAPKSLIYAASSLQSGVPSRFSGSGSGTDFTLTISSLQPEDFATYYCQQYNSYPLTFGGGTKVEIKR
notes: IgG2; also called 11F11-2
With B1, the “Ymax, cAMP HTRF assay (100 nM 11F11 set to 100%)” value in assay [1] was 76%. Further, the “Ymax, CD73 internalization (100 nM 11F11 set to 100%)” value in assay [2] was 98%. In assay [3], the Kd – broadly, the concentration at which binding is half-saturated – is 1.1 nM.
